The source of these data is the RNAGym collection of RNA variant scans (doi:10.1073/pnas.2313332121).

Fewer inactive variants are shown than the library holds.

To fix the notation:
B1: TPR 5TU (parent)
chain: GGAUCUUCUCGAUCUAACAAAAAAGACAAAUCUGCCACAAAGCUUGAGAGCAUCUUCGGAUGCAGAGGCGGCAGCCUUCGGUGGCGCGAUAGCGCCAACGUUCUCAACUAUGACACGCAAAACGCGUGCUCCGUUGAAUGGAGUUUAUCAUG

In the data set the parent is B1. Kind of data set: polymerase ribozyme fitness, log enrichment relative to wild type (log ratio); higher = more active; in vitro selection for triplet polymerase activity. In a few lines: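 Genotype fitness is the logarithm of its enrichment divided by wild-type enrichment, using inverse-variance-weighted averages of replicates. That logarithm is base 2. Enrichment was measured by Illumina sequencing of input and output libraries from one triplicate in vitro selection round, with frozen incubation at −7 °C, on PCR-built, transcribed mutant libraries of each subunit of a heterodimeric triplet polymerase ribozyme, retaining genotypes with ≥10 input reads and ≥1 read per output.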
As for C51U C108U, the “polymerase ribozyme fitness (log ratio)” value is -3.72. For C51U C96U C105U, the “polymerase ribozyme fitness (log ratio)” value is 0.0676.

A52C G92U C103G A106C: the “polymerase ribozyme fitness (log ratio)” value is at most -4.2. In the case of C51U A52G C87U A137C, the “polymerase ribozyme fitness (log ratio)” value was at most -4.2. For the variant A52C A122G, the “polymerase ribozyme fitness (log ratio)” value was -1.4. Consider G50U G84A A91U C116A, for which the “polymerase ribozyme fitness (log ratio)” value was at most -4.2. In the case of A52C C57U C63A C72G U77A C85A A107U A122U G136C U148A, the “polymerase ribozyme fitness (log ratio)” value is at most -4.2. Turning to C51U C72U G92C A98G U127G A138C G140A, the “polymerase ribozyme fitness (log ratio)” value is at most -4.2. On to A52C U56A G67C G84A U139G U144A, for which the “polymerase ribozyme fitness (log ratio)” value is at most -4.2. With C51U G65C C87U, the “polymerase ribozyme fitness (log ratio)” value is at most -4.2. As to A52C C85U G94C G141C, the “polymerase ribozyme fitness (log ratio)” value was -3.45. C51A G58A G74C C96U A107C: the “polymerase ribozyme fitness (log ratio)” value was at most -4.2. For the variant A52C C85A A121G, the “polymerase ribozyme fitness (log ratio)” value is -1.8. A52C G70C C85U G94C C129A: the “polymerase ribozyme fitness (log ratio)” value is at most -4.2. In the case of G50U U55A C96U, the “polymerase ribozyme fitness (log ratio)” value was -0.864. As to C51G C96A A147C, the “polymerase ribozyme fitness (log ratio)” value is -3.82. Take A52C C85G C87U G133A G143C: the “polymerase ribozyme fitness (log ratio)” value is -4.07. C51U A52G A60U A66G C103U A107U C114U C123G G143A: the “polymerase ribozyme fitness (log ratio)” value is at most -4.2. To A52G A121C belongs -0.337; to C51U C93A A150U, -0.998; to A52C C96U A119U U130G, at most -4.2. For C51U A73G G92U G124A, the “polymerase ribozyme fitness (log ratio)” value is -0.37. As to C51A G67A A73G C95A U101G G140U U151G, the “polymerase ribozyme fitness (log ratio)” value was at most -4.2. Regarding C51A C85A G141A, the “polymerase ribozyme fitness (log ratio)” value was -1.93. Consider C51U C96U, for which the “polymerase ribozyme fitness (log ratio)” value is -0.419. As to G50U G83C, the “polymerase ribozyme fitness (log ratio)” value is -0.813. For the variant G50U G83A, the “polymerase ribozyme fitness (log ratio)” value was -0.347. As to G50U G86A, the “polymerase ribozyme fitness (log ratio)” value is -2.57. Turning to G50U G86U, the “polymerase ribozyme fitness (log ratio)” value is -1.71. To C51U A98U U135C U144A belongs -3.82; to G50U U53A G58A A73G C79A C93A A107U C116G G136C, at most -4.2; to A52C G67C G83U C108U G124U, at most -4.2. In the case of G50U U139C, the “polymerase ribozyme fitness (log ratio)” value was -3.65. Consider C51U A52C U82G U135G, for which the “polymerase ribozyme fitness (log ratio)” value is -3.54. Regarding C51G C85U, the “polymerase ribozyme fitness (log ratio)” value was -1.91. To A52C C57U G81C belongs -1.59; to A52C U53A G86A C87U C105A A106U, at most -4.2. A52C U111C A121C C123A U145A A150G: the “polymerase ribozyme fitness (log ratio)” value is -3.02. As for G50U U55A G71U, the “polymerase ribozyme fitness (log ratio)” value is -3.35. Take C51A G86U C108G A137C: the “polymerase ribozyme fitness (log ratio)” value is at most -4.2. For the variant C51A A52U C63U C99G A106C A119G G126U, the “polymerase ribozyme fitness (log ratio)” value is at most -4.2.

Take A52C G74C C108U A113G U145G: the “polymerase ribozyme fitness (log ratio)” value is at most -4.2. Turning to A52C G83U A106G, the “polymerase ribozyme fitness (log ratio)” value is -2.56.

For C51G A91G G92U U101C, the “polymerase ribozyme fitness (log ratio)” value was at most -4.2.

Regarding A52C C54A, the “polymerase ribozyme fitness (log ratio)” value is at most -4.2.

In the case of C51U A73G G92U, the “polymerase ribozyme fitness (log ratio)” value is -0.595. Turning to C51G G58C, the “polymerase ribozyme fitness (log ratio)” value was -1.42.

Regarding C51A A66G G71A G80C G94C A113G, the “polymerase ribozyme fitness (log ratio)” value is at most -4.2. As to G50U U102A, the “polymerase ribozyme fitness (log ratio)” value was -0.888. For the variant G50U U102G, the “polymerase ribozyme fitness (log ratio)” value was -2.92. With C51A G117U, the “polymerase ribozyme fitness (log ratio)” value was -1.02. Regarding A52G A60U C85A G94U C96G, the “polymerase ribozyme fitness (log ratio)” value was -3.93. As for C51U U61C C76U G94C A121U C125G U145A, the “polymerase ribozyme fitness (log ratio)” value was at most -4.2. For the variant A52C C85U A147G, the “polymerase ribozyme fitness (log ratio)” value was -3.76. For C51A U102A, the “polymerase ribozyme fitness (log ratio)” value is -1.41.

As for C51U A64C C79A C85U A142G, the “polymerase ribozyme fitness (log ratio)” value is at most -4.2.

Take A52G A137C: the “polymerase ribozyme fitness (log ratio)” value is -3.28. For the variant A52C G143C, the “polymerase ribozyme fitness (log ratio)” value was -3.51. Regarding G50U U53G C69G G94A, the “polymerase ribozyme fitness (log ratio)” value was at most -4.2. C51A A52G: the “polymerase ribozyme fitness (log ratio)” value is -0.455. Take C51U U53A G65U G84U C93A C116G U135G: the “polymerase ribozyme fitness (log ratio)” value is at most -4.2. To C51U C85G A115C belongs -1.9. The result for C51G U56A A97U C123U reads -3; that for G50U G86A C93U C96U, -0.529; that for A52C G70A U90G A106U, at most -4.2. To G50U G81C U134A belongs -2.19; to C51U C54U C85A A98U, -2.81; to C51G C125U U144C, -4.07. As for A52C C103A A147C, the “polymerase ribozyme fitness (log ratio)” value was at most -4.2. The result for C51U G81C C87U C116A G124A U134A U148A reads at most -4.2; that for A52C U55A U82C, -2.36; that for C51A U55A A60C G74A G81A U90G C95A, at most -4.2. To C51U C95A A98U C116G belongs 0.822. The result for C51A C63U C85A G126A C129A G140A reads at most -4.2; that for C51G C87A, at most -4.2. For the variant C51A C85U, the “polymerase ribozyme fitness (log ratio)” value is -1.01.

Regarding C51G C63U C116U U139C, the “polymerase ribozyme fitness (log ratio)” value is at most -4.2. Take A52C G83C C87U A122G: the “polymerase ribozyme fitness (log ratio)” value is at most -4.2. To C51U C57A G83C A106G belongs -0.97; to A52C G86A, -1.2.

On to A52C G86C, for which the “polymerase ribozyme fitness (log ratio)” value is -4.07. To A52C U90G belongs at most -4.2; to C51U A73G C96G C123U, -0.999; to C51A C75U, -2.27.
